Values joined by “and” are separate entries in the source; they are usually repeats but may differ in a detail not shown here. Identical values can stand only once.
What was measured:
[1] = target: K2-2 (phage tailspike protein, K2 capsular polysaccharide depolymerase), wild type with an N-terminal His-tag (not stated (bacteriophage of Klebsiella pneumoniae, phage not named)); test: SEC-MALS; 100 microgram protein in 20 mM Tris pH 8.0, 100 mM NaCl, 0.02% NaN3; ENrich SEC 650 column, 0.5 ml/min
[2] = target: K2-2 (phage tailspike protein, K2 capsular polysaccharide depolymerase), wild type with an N-terminal His-tag (not stated (bacteriophage of Klebsiella pneumoniae, phage not named)); test: crystal structure; N-terminally His-tagged K2-2 (wild type, and E323A soaked with 10 mM hydrolyzed K2 CPS products for 18 h); crystallised at 15°C, 0.1 M Bicine pH 9.0, 22% PEG-6000; space groups P2(1) and C2
[3] = target: K2-2 D515A mutant (not stated (bacteriophage of Klebsiella pneumoniae, phage not named)); test: SEC-MALS; 100 microgram protein in 20 mM Tris pH 8.0, 100 mM NaCl, 0.02% NaN3; ENrich SEC 650 column, 0.5 ml/min
[4] = target: K2-2 E323A mutant (not stated (bacteriophage of Klebsiella pneumoniae, phage not named)); test: crystal structure; N-terminally His-tagged K2-2 (wild type, and E323A soaked with 10 mM hydrolyzed K2 CPS products for 18 h); crystallised at 15°C, 0.1 M Bicine pH 9.0, 22% PEG-6000; space groups P2(1) and C2
[5] = target: K2-2 S424A mutant (not stated (bacteriophage of Klebsiella pneumoniae, phage not named)); test: SEC-MALS; 100 microgram protein in 20 mM Tris pH 8.0, 100 mM NaCl, 0.02% NaN3; ENrich SEC 650 column, 0.5 ml/min
[6] = target: K2-2 with a C-terminal His-tag (K2-2^C-His) (not stated (bacteriophage of Klebsiella pneumoniae, phage not named)); test: as above
[7] = target: K2-2 with a C-terminal His-tag (K2-2^C-His) (not stated (bacteriophage of Klebsiella pneumoniae, phage not named)); test: crystal structure; K2-2^C-His crystallised at 15°C, 0.1 M Bicine pH 9.0, 10% PEG-4000, 10% polyacrylic acid 2100 sodium salt; Se-MAD phasing; space group P6(3)

## K2-2 (phage tailspike protein, K2 capsular polysaccharide depolymerase), wild type with an N-terminal His-tag (enzyme)
[1]
  stoichiometry N: 3
[2]
  stoichiometry N: 3

## K2-2 D515A mutant (enzyme)
[3]
  stoichiometry N: 2

## K2-2 E323A mutant (enzyme)
[4]
  stoichiometry N: 3

## K2-2 S424A mutant (enzyme)
[5]
  stoichiometry N: 3

## K2-2 with a C-terminal His-tag (K2-2^C-His) (enzyme)
[6]
  stoichiometry N: 4 and 3
[7]
  stoichiometry N: 4

— paper PMC10936425
